Source: patent publication US20120093805A1

Target: sugar chain-deficient cynomolgus CD27 (C-terminal His tag) expressed on Lec8 cells (cynomolgus)
Test: flow cytometry (FCM) on cynomolgus CD27/Lec8 cells (Example 11(5)) [A]

EC50 (read off the curve): 0.2 µg/mL
B1: anti-sugar chain-deficient CD27 chimeric antibody chimeric KM4030 (antibody, human IgG1, V domains shown)
VH: EVQLVESGGGLVQPGRSLKLSCVASGFTFNNYWMTWIRQAPGKGLEWIASITNSGGSTYYPDSVKGRFTISRDNAKGTLYLQMNSLRSEDTATYYCTRDVNTYYGYNALFDYWGQGVMVTVSS
VL: DIQMTQSPSVLSASVGDRVTLNCKASQNINEYLNWYQQKLGEAPKLLIYNTNNLQTGIPSRFSGSGSGTDFTLTISSLQPEDFAAYFCFQHNSWPYTFGAGTKLELK
